In patent publication US20240252614A1 (Pfizer, published 2024):

Key:
Test in all cases: BLI, 53C stress
hMPV068 = biological target: T1, hMPV068 (hMPV A, UniProt Q6WB98 19-102)
T1 construct: A159V
Description: (§1) The OCTET HTX (Sartorius, Gottingen, Germany) instrument was used to evaluate the expression and conformational integrity for each mutant. All measurements were conducted at 30° C. temperature in 96-well black plates (Corning, Corning, NY) with a final volume of 240 μL per well at a constant agitation rate of 1000 RPM.
(§2) Conformation integrity of hMPV A F protein mutants were evaluated by thermal stress experiments. Crude cell culture supernatants were normalized based on the results of the titer quantitation and then incubated for 1 hour at room temperature and two higher temperatures. […] Anti-Human IgG Fc Capture (AHC) biosensors were first equilibrated in PB before being dipped into more PB to establish the initial baseline. […] The mAb-bound biosensors were then dipped into the thermal stressed cell culture supernatants for 5 minutes. The kinetics analysis was done by OCTET data analysis software (version 12.0, Sartorius) based on curve fitting of the entire associate step.

hMPV046 = biological target: T2, hMPV046 (hMPV A, UniProt Q6WB98 19-102)
T2 construct: A140C-S149C
Description: as §1, §2

hMPV060 = biological target: T3, hMPV060 (hMPV A, UniProt Q6WB98 19-102)
T3 construct: A459P
Description: as §1, §2

hMPV075 = biological target: T4, hMPV075 (hMPV A, UniProt Q6WB98 19-102)
T4 construct: L473F
Description: as §1, §2

hMPV077 = biological target: T5, hMPV077 (hMPV A, UniProt Q6WB98 19-102)
T5 construct: Q476C, S477C
Description: as §1, §2

hMPV071 = biological target: T6, hMPV071 (hMPV A, UniProt Q6WB98 19-102)
T6 construct: T365I
Description: as §1, §2

hMPV062 = biological target: T7, hMPV062 (hMPV A, UniProt Q6WB98 19-102)
T7 construct: G121A
Description: as §1, §2

hMPV058 = biological target: T8, hMPV058 (hMPV A, UniProt Q6WB98 19-102)
T8 construct: L187P
Description: as §1, §2

hMPV053 = biological target: T9, hMPV053 (hMPV A, UniProt Q6WB98 19-102)
T9 construct: L110P
Description: as §1, §2

hMPV052 = biological target: T10, hMPV052 (hMPV A, UniProt Q6WB98 19-102)
T10 construct: L66P
Description: as §1, §2

hMPV049 = biological target: T11, hMPV049 (hMPV A, UniProt Q6WB98 19-102)
T11 construct: E146C-T160C
Description: as §1, §2

hMPV048 = biological target: T12, hMPV048 (hMPV A, UniProt Q6WB98 19-102)
T12 construct: L141C-A161C
Description: as §1, §2

hMPV066 = biological target: T13, hMPV066 (hMPV A, UniProt Q6WB98 19-102)
T13 construct: T49I
Description: as §1, §2

hMPV067 = biological target: T14, hMPV067 (hMPV A, UniProt Q6WB98 19-102)
T14 construct: S149T
Description: as §1, §2

hMPV043 = biological target: T15, hMPV043 (hMPV A, UniProt Q6WB98 19-102)
T15 construct: G366C-D454C
Description: as §1, §2

hMPV044 = biological target: T16, hMPV044 (hMPV A, UniProt Q6WB98 19-102)
T16 construct: T411C-Q434C
Description: as §1, §2

hMPV063 = biological target: T17, hMPV063 (hMPV A, UniProt Q6WB98 19-102)
T17 construct: G239A
Description: as §1, §2

[1] = biological target: T18, PIV1 F literature prefusion comparison (PIV1)
T18 construct: F113G, F114S, A466I, S473I (Stewart-Jones et al. 2018)
Description: as §1
(§3) Conformation integrity of PIV1 F protein mutants were evaluated by a thermal stress experiment. Crude cell culture supernatants were normalized based on the results of the titer quantitation and then incubated for 1 hour at room temperature and two higher temperatures. For the initial testing of PIV1 mutants, the two temperatures were 50° C. and 53° C. […] Anti-Human IgG Fc Capture (AHC) biosensors were first equilibrated in PB for before being dipped into more PB to establish the initial baseline. […] The mAb-bound biosensors were then dipped into the thermal stresses cell culture supernatants for 5 minutes.

PIV1064 = biological target: T19, PIV1064 (PIV1)
T19 construct: F113G, F114S, Q92C-G134C, A466I, S473I, A480L
Description: as §1, §3

PIV1068 = biological target: T20, PIV1068 (PIV1)
T20 construct: A466I, S473I, A480I, Q92L, G134A
Description: as §1, §3

PIV1060 = biological target: T21, PIV1060 (PIV1)
T21 construct: Q92L, G134A, A466L, S473L, A480L
Description: as §1, §3

PIV1051 = biological target: T22, PIV1051 (PIV1)
T22 construct: Q92C-G134C, A466V, S473V, A480V
Description: as §1, §3

PIV1061 = biological target: T23, PIV1061 (PIV1)
T23 construct: Q92L, G134A, A466L, S473L
Description: as §1, §3

PIV1062 = biological target: T24, PIV1062 (PIV1)
T24 construct: F113G, F114S, A466L, S473L, A480L, Q92A, G134L
Description: as §1, §3

PIV1050 = biological target: T25, PIV1050 (PIV1)
T25 construct: F113G, F114S, Q92C-G134C, A466V, S473V, A480V
Description: as §1, §3

PIV1049 = biological target: T26, PIV1049 (PIV1)
T26 construct: Q92C-G134C, A466L, S473L
Description: as §1, §3

PIV1047 = biological target: T27, PIV1047 (PIV1)
T27 construct: F113G, F114S, Q92C-G134C, A466L, S473L, A480L
Description: as §1, §3

PIV1057 = biological target: T28, PIV1057 (PIV1)
T28 construct: A466L, S473L, A480L, Q92A, G134A
Description: as §1, §3

PIV1054 = biological target: T29, PIV1054 (PIV1)
T29 construct: A466L, S473L, A480L, G134A
Description: as §1, §3

PIV1053 = biological target: T30, PIV1053 (PIV1)
T30 construct: F113G, F114S, A466L, S473L, A480L, G134A
Description: as §1, §3

PIV1063 = biological target: T31, PIV1063 (PIV1)
T31 construct: A466L, S473L, A480L, Q92A, G134L
Description: as §1, §3

PIV1058 = biological target: T32, PIV1058 (PIV1)
T32 construct: A466L, S473L, Q92A, G134A
Description: as §1, §3

PIV1059 = biological target: T33, PIV1059 (PIV1)
T33 construct: F113G, F114S, A466L, S473L, A480L, G134A, Q92L
Description: as §1, §3

PIV1048 = biological target: T34, PIV1048 (PIV1)
T34 construct: Q92C-G134C, A466L, S473L, A480L
Description: as §1, §3

PIV1065 = biological target: T35, PIV1065 (PIV1)
T35 construct: F113G, F114S, Q92C-G134C, A466I, S473I
Description: as §1, §3

B1: hMPV-2 mAb (antibody, V domains shown)
VH: QVQLQQSGAEVKKPGASVKVSCKASGYTFTSYGISWVRQAPGQGLEWMGWISGYNGNTNYAQTFQGTFTMTTDTSTSTAYMELRRLRSGDTAVYYCARDRYYASGSYNGMDVWGQGTTVTVSS
VL: QSALTQPPSASGAPGQRVTVSCSGSSSNVGSSSVYWYQQLPGTAPKLLIYRNNQRPSGVPDRFSGSKSGTSASLAISGLRSEDEADYYCAAWDDSLSGWVFGGGTKLTVLG
notes: human IgG1
Question: How did the “Response Shift” value (hMPV068) turn out when B1 was run?
Answer: Its value is 0.022 nm.

Question: And the “Response Shift” value (hMPV046)?
Answer: Its value is 0.196 nm.

Question: And the “Response Shift” value (hMPV060)?
Answer: The value was -0.045 nm.

Question: What about the “Response Shift” value (hMPV075) of the same binder?
Answer: The value was -0.082 nm.

Question: And the “Response Shift” value (hMPV077)?
Answer: The value was -0.007 nm.

Question: What about the “Response Shift” value (hMPV071) of the same binder?
Answer: Its value is -0.046 nm.

Question: And the “Response Shift” value (hMPV062)?
Answer: The value was 0.013 nm.

Question: And the “Response Shift” value (hMPV058)?
Answer: The value was -0.052 nm.

Question: What about the “Response Shift” value (hMPV053) of the same binder?
Answer: The value was 0.017 nm.

Question: And the “Response Shift” value (hMPV052)?
Answer: The value was -0.044 nm.

Question: What about the “Response Shift” value (hMPV049) of the same binder?
Answer: Its value is -0.011 nm.

Question: And the “Response Shift” value (hMPV048)?
Answer: Its value is -0.059 nm.

Question: What about the “Response Shift” value (hMPV066) of the same binder?
Answer: Its value is 0.265 nm.

Question: What about the “Response Shift” value (hMPV067) of the same binder?
Answer: Its value is 0.184 nm.

Question: What about the “Response Shift” value (hMPV043) of the same binder?
Answer: Its value is 0.03 nm.

Question: What about the “Response Shift” value (hMPV044) of the same binder?
Answer: Its value is 0.618 nm.

Question: What about the “Response Shift” value (hMPV063) of the same binder?
Answer: Its value is 0.001 nm.

B2: PIV1-8 mAb (antibody, V domains shown)
VH: QVQLVQSGAEVKKPGSSVKVSCEASGGTFSNYVISWVRQAPGQGLEWMGGIIPVFATAKYAQKFQGRVTIIADQSTNTAYLELSSLRSDDTAVYFCASVDSGGTWWDAFAIWGQGTMVTVSS
VL: QAVVTQPRSVSGSPGQAVTISCTGTSSDVGGYNYVSWYQHHPGKAPKLIIYDVTKRPSGVPDRFSGSKSGNTASLTISGLQTEYEADYYCCSYAGSYTLVFGGGTKLTVLG
notes: human IgG1; also called hPIV1-8 mAb; hPIV1-8
Question: What does the source list for B2?
Answer: Response Shift [1]: 0.646 nm; Response Shift (PIV1064): 0.897 nm; Response Shift (PIV1068): 0.65 nm; Response Shift (PIV1060): 0.671 nm; Response Shift (PIV1051): 0.744 nm; Response Shift (PIV1061): 0.648 nm; Response Shift (PIV1062): 0.714 nm; Response Shift (PIV1050): 0.907 nm; Response Shift (PIV1049): 0.883 nm; Response Shift (PIV1047): 0.862 nm; Response Shift (PIV1057): 0.808 nm; Response Shift (PIV1054): 0.826 nm; Response Shift (PIV1053): 0.901 nm; Response Shift (PIV1063): -0.036 nm; Response Shift (PIV1058): 0.704 nm; Response Shift (PIV1059): 0.903 nm; Response Shift (PIV1048): 0.783 nm; Response Shift (PIV1065): 0.816 nm
